{"source": "paper PMC6370476", "target": "SpyTag-γPFD-Cys (not stated | Methanocaldococcus jannaschii)", "assay": "leaching of fluorescent protein from the hydrogel, fluorescence of the buffer", "data": [{"substance": "SpyCatcher-mCerulean3", "values": [{"measurement": "percent leached from the hydrogel after two weeks", "value": 35, "unit": "%"}]}]}
